Source: US20240238445A1, “INHIBITORS AND USES THEREOF” (NEURACLE SCIENCE CO., LTD., priority 2021, published 2024)

B1: LRRC4B (453-576): LRRC4B ectodomain fragment, amino acids 453-576 of SEQ ID NO: 2; FLAG-tagged or hFc-fused (protein)
chain: VSAVDPVAAGGTGSGGGGPGGSGGVGGGSGGYTYFTTVTVETLETQPGEEALQPRGTEKEPPGPTTDGVWGGGRPGDAAGPASSSTTAPAPRSSRPTEKAFTVPITDVTENALKDLDDVMKTTK
modifications: FLAG tag or human Fc
notes: FLAG-tagged or hFc-fused
B2: LRRC4B (498-576): LRRC4B ectodomain fragment, amino acids 498-576 of SEQ ID NO: 2 (protein)
chain: QPGEEALQPRGTEKEPPGPTTDGVWGGGRPGDAAGPASSSTTAPAPRSSRPTEKAFTVPITDVTENALKDLDDVMKTTK

What was measured:
FAM19A5 protein [1] = target: T1, FAM19A5 protein (Homo sapiens, UniProt Q7Z5A7); assay: ELISA binding of recombinant FAM19A5 to coated hFc-conjugated LRRC4 family ectodomains, fragments or synthetic peptides; conditions: coated 100 nM/well, FAM19A5 up to 10 nM
T1 sequence (Q7Z5A7 44-132): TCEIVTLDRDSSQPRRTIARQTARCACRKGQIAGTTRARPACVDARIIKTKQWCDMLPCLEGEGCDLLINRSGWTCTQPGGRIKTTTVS
Procedure: Next, to confirm the above co-immunoprecipitation results, an ELISA assay was used to measure the binding of the FAM19A5 protein to either the full-length ectodomain of members of LRRC4 protein family or various LRRC4B ectodomain protein fragments. Specifically, an ELISA plate was coated with one of the following LRRC4B ectodomain protein, which was conjugated to human Fc (100 nM/well): (1) full-length ectodomain of LRRC4 protein (amino acid residues 39-527 of SEQ ID NO: 1) (SEQ ID NO: 4); (2) full-length ectodomain of LRRC4B protein (amino acids 36-576 of SEQ ID NO: 2; i.e., construct #7 in Table 6) (SEQ ID NO: 5); (3) full-length ectodomain of LRRC4C protein (amino acids 45-527 of SEQ ID NO: 3) (SEQ ID NO: 6); (4) LRRC4B ectodomain fragment (amino acids 453-576 of SEQ ID NO: 2; i.e., construct #11 in Table 6) (SEQ ID NO: 7); (5) LRRC4B ectodomain fragment (amino acids 484-576 of SEQ ID NO: 2; i.e., construct #12 in Table 6) (SEQ ID NO: 8); (6) LRRC4B ectodomain fragment (amino acids 482-576 of SEQ ID NO: 2) (SEQ ID NO: 9); (7) LRRC4B ectodomain fragment (amino acids 482-497 of SEQ ID NO: 2) (SEQ ID NO: 10); and (8) LRRC4B ectodomain fragment (amino acids 498-576 of SEQ ID NO: 2; i.e., construct #13 in Table 6) (SEQ ID NO: 11). Then, recombinant FAM19A5 proteins (0.005, 0.01, 0.025, 0.05, 0.1, 0.25, 0.5, 1, 2.5, 5, and 10 nM) were added to the relevant wells, and the plates were incubated at 37° C. for 1 hour. Afterwards, the amount of LRRC4B-bound FAM19A5 protein was detected using HRP-conjugated anti-FAM19A5 (1-65) antibody.
As further confirmation, three synthetic polypeptides comprising amino acids 484-497 of SEQ ID NO: 2 (i.e., YTYFTTVTVETLET; SEQ ID NO: 65) were constructed: (1) FB-16 (GYTYFTTVTVETLETQ; SEQ ID NO: 17), (2) FB-20 ([…]; SEQ ID NO: 18), and (3) FB-28 ([…]; SEQ ID NO: 19). The peptides differed in their total length. The ability of these polypeptides to bind to recombinant FAM19A5 protein was assessed using an ELISA assay as described above.

[2] = system: mouse primary cortical neurons; assay: Neurite growth of mouse primary cortical neurons in vitro; assay type: cell-based; conditions: for neurite growth / neurite outgrowth: treated days 1 and 2, assessed day 3, anti-beta-tubulin III, LRRC4B fragment 0.006 to 60 nM, versus control
Procedure: Next, primary cortical neurons (day 1 postnatal) were cultured in vitro with varying concentrations (0.006 to 60 nM) of the LRRC4B (453-576) protein fragment (i.e., amino acid residues 453-576 of SEQ ID NO: 2; SEQ ID NO: 7), and then at day 3 post-initial culture, the effect on neurite growth was assessed by immunostaining the cells with anti-beta-tubulin III antibody. Cells cultured with DMSO (“Veh”) were used as control.
Mouse hippocampal neurons were treated with LRRC4B peptides at 1 and 2 DIV to determine neurite growth. It was measured by using 3 different parameters, which are total neurites length, number of primary and secondary neurites. After the neurons were stained with beta-tubulin III at 3 DIV, neurites length and branch points were measured using Fiji (Image J, NIH, Bethesda). Individual neurons were selected by hand and these parameters were counted using the Simple neurite tracer plugin. Mouse spinal motor neurons sampled at postnatal day 1 were treated with 10 nM of NS101 and LRRC4B-peptides (dFB-dWY-JM31 and dFB-DY-JM31) at 1 and 2 DIV and immunostained with Tau-5 antibody at 3 DIV. Total neurite length and number of somas in images were measured by Neurphology Image J plugin.

FAM19A5 protein [3] = target: T1, FAM19A5 protein; assay: Co-immunoprecipitation of FLAG-tagged LRRC4 family deletion constructs/fragments with recombinant FAM19A5 in HEK293 cells; assay type: binding; conditions: HEK293 cells expressing FLAG-tagged construct, recombinant FAM19A5 1 μM 30 minutes; IP anti-FLAG, blot anti-FAM19A5 (3-2)
How it was run: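 HEK293 cells expressing FLAG-tagged LRRC4B deletion constructs or LRRC4C (aa 354-527) / LRRC4 (aa 353-527) fragments were treated with 1 μM recombinant FAM19A5 for 30 min. Lysates immunoprecipitated with anti-FLAG and immunoblotted with anti-FLAG and anti-FAM19A5 (3-2) antibodies.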

[4] = day 3, compared to the control group

| Molecule | binding to FAM19A5 protein (ELISA, in words) (FAM19A5 protein [1]) | neurite growth / neurite outgrowth [2] | binding to FAM19A5 protein (co-immunoprecipitation) (FAM19A5 protein [3]) | neurite length [2, 4] | number of branching points [2, 4] | number of primary and secondary neurites [2, 4] |
| --- | --- | --- | --- | --- | --- | --- |
| GYTYFTTVTVETLETQPGEE [FB-20] | able to bind to recombinant FAM19A5 protein with high affinity | Increased neurite outgrowth |  |  |  |  |
| B1 |  | increased neurite growth in a dose-dependent manner | able to bind to the FAM19A5 protein with varying degree | increased neurite length | increased number of branching points | increased number of primary and secondary neurites |
| B2 | failed to bind to FAM19A5 |  | not able to do so |  |  |  |
